According to the RNAGym collection of RNA variant scans (doi:10.7554/elife.80360):

B1: CPEB3 Ribozyme (parent)
chain: GGGGGCCACAGCAGAAGCGUUCACGUCGCGGCCCCUGUCAGAUUCUGGUGAAUCUGCGAAUUCUGCUGU

Variants of: B1
Experiment: self-cleavage, relative activity (ratio to wild type); higher = more cleavage; co-transcriptional

Q: With GGGGGCCACAGCAGAAGCGUUCACGUCGCGGCCCCUGUCAGAUCCUGGUGAAUCUGCGAAUACUGCUGU as the variant, how does the self-cleavage read?
A: Its self-cleavage is 0.728.

Q: Which self-cleavage does the source give for GGGGGCCACAGCAGAAGCGUUCACGUCGCGGCCCCUGUCAGAUCCUGGUGAAUCUGCGAAUUCCGCUGU here?
A: Its self-cleavage is 0.565.

Q: With GGGGGCCACAGCAGAAGCGUUCACGUCGCGGCCCCUGUCAGAUGUUGGUGAAUCUGCGAAUUCUGCUGU as the variant, how does the self-cleavage read?
A: The self-cleavage was 0.945.

Q: With GGGGGCCACAGCAGAAGCGUUCACGUCGCGGCCCCUGUCAGAUGGUGGUGAAUCUGCGAAUUCUGCUGU as the variant, how does the self-cleavage read?
A: Its self-cleavage is 0.855.

Q: For GGGGGCCACAGCAGAAGCGUUCACGUCGCGGCCCCUGUCAGAUCCUGGUGAAUCUGCGAAAUCUGCUGU, which self-cleavage is on record?
A: Its self-cleavage is 0.801.

Q: With GGGGGCCACAGCAGAAGCGUUCACGUCGCGGCCCCUGUCAGAUCCUGGUGAAUCUGCGAAGUCUGCUGU as the variant, how does the self-cleavage read?
A: The self-cleavage was 0.49.

Q: For GGGGGCCACAGCAGAAGCGUUCACGUCGCGGCCCCUGUCAGAUGCUGGAGAAUCUGCGAAUUCUGCUGU, which self-cleavage is on record?
A: The self-cleavage was 0.935.

Q: For GGGGGCCACAGCAGAAGCGUUCACGUCGCGGCCCCUGUCAGAUGCUGGCGAAUCUGCGAAUUCUGCUGU, which self-cleavage is on record?
A: The self-cleavage was 0.901.

Q: For GGGGGCCACAGCAGAAGCGUUCACGUCGCGGCCCCUGUCAGAUGCUGAUGAAUCUGCGAAUUCUGCUGU, which self-cleavage is on record?
A: Its self-cleavage is 0.963.

Q: With GGGGGCCACAGCAGAAGCGUUCACGUCGCGGCCCCUGUCAGAUGCUGUUGAAUCUGCGAAUUCUGCUGU as the variant, how does the self-cleavage read?
A: Its self-cleavage is 0.986.

Q: With GGGGGCCACAGCAGAAGCGUUCACGUCGCGGCCCCUGUCAGAUUAUGGUGAAUCUGCGGAUUCUGCUGU as the variant, how does the self-cleavage read?
A: The self-cleavage was 0.971.

Q: With GGGGGCCACAGCAGAAGCGUUCACGUCGCGGCCCCUGUCAGAUGCUGGUGAAUCUGCGAAUUCAGCUGU as the variant, how does the self-cleavage read?
A: Its self-cleavage is 0.662.

Q: Which self-cleavage does the source give for GGGGGCCACAGCAGAAGCGUUCACGUCGCGGCCCCUGUCAGAUUAUGGUGUAUCUGCGAAUUCUGCUGU here?
A: Its self-cleavage is 0.931.

Q: For GGGGGCCACAGCAGAAGCGUUCACGUCGCGGCCCCUGUCAGAUGCUGGUGAAUAUGCGAAUUCUGCUGU, which self-cleavage is on record?
A: Its self-cleavage is 0.596.

Q: With GGGGGCCACAGCAGAAGCGUUCACGUCGCGGCCCCUGUCAGAUGCUGGUGAAUCUGCGAAUGCUGCUGU as the variant, how does the self-cleavage read?
A: Its self-cleavage is 0.777.

Q: For GGGGGCCACAGCAGAAGCGUUCACGUCGCGGCCCCUGUCAGAUGCUGGUGAAUCUGCGAAUACUGCUGU, which self-cleavage is on record?
A: Its self-cleavage is 0.908.

Q: For GGGGGCCACAGCAGAAGCGUUCACGUCGCGGCCCCUGUCAGAUGCUGGUGACUCUGCGAAUUCUGCUGU, which self-cleavage is on record?
A: Its self-cleavage is 0.976.

Q: For GGGGGCCACAGCAGAAGCGUUCACGUCGCGGCCCCUGUCAGAUGCUGGUGAAUCUACGAAUUCUGCUGU, which self-cleavage is on record?
A: The self-cleavage was 0.822.

Q: For GGGGGCCACAGCAGAAGCGUUCACGUCGCGGCCCCUGUCAGAUGCUGGUGAAUCUCCGAAUUCUGCUGU, which self-cleavage is on record?
A: Its self-cleavage is 0.44.

Q: For GGGGGCCACAGCAGAAGCGUUCACGUCGCGGCCCCUGUCAGAUGCUGGUGAAUCUGCGCAUUCUGCUGU, which self-cleavage is on record?
A: Its self-cleavage is 0.629.

Q: For GGGGGCCACAGCAGAAGCGUUCACGUCGCGGCCCCUGUCAGAUGCUGGUGAAUCUGAGAAUUCUGCUGU, which self-cleavage is on record?
A: The self-cleavage was 0.327.

Q: For GGGGGCCACAGCAGAAGCGUUCACGUCGCGGCCCCUGUCAGAUGCUGGUGAAUCUGUGAAUUCUGCUGU, which self-cleavage is on record?
A: Its self-cleavage is 0.23.

Q: For GGGGGCCACAGCAGAAGCGUUCACGUCGCGGCCCCUGUCAGAUGCUGGUGAAUCUGGGAAUUCUGCUGU, which self-cleavage is on record?
A: The self-cleavage was 0.335.

Q: For GGGGGCCACAGCAGAAGCGUUCACGUCGCGGCCCCUGUCAGAUCCGGGUGAAUCUGCGAAUUCUGCUGU, which self-cleavage is on record?
A: The self-cleavage was 0.98.

Q: For GGGGGCCACAGCAGAAGCGUUCACGUCGCGGCCCCUGUCAGAUGCUGGUAAAUCUGCGAAUUCUGCUGU, which self-cleavage is on record?
A: Its self-cleavage is 1.

Q: With GGGGGCCACAGCAGAAGCGUUCACGUCGCGGCCCCUGUCAGAUGCUGGUGAAUCUGCGAAUUGUGCUGU as the variant, how does the self-cleavage read?
A: Its self-cleavage is 0.588.

Q: For GGGGGCCACAGCAGAAGCGUUCACGUCGCGGCCCCUGUCAGAUUAUGGUGAGUCUGCGAAUUCUGCUGU, which self-cleavage is on record?
A: Its self-cleavage is 0.97.

Q: For GGGGGCCACAGCAGAAGCGUUCACGUCGCGGCCCCUGUCAGAUUAUGGUGACUCUGCGAAUUCUGCUGU, which self-cleavage is on record?
A: The self-cleavage was 0.908.

Q: For GGGGGCCACAGCAGAAGCGUUCACGUCGCGGCCCCUGUCAGAUCCUGGUGAAUCUGCGAAUUCUGCCGU, which self-cleavage is on record?
A: Its self-cleavage is 0.937.

Q: For GGGGGCCACAGCAGAAGCGUUCACGUCGCGGCCCCUGUCAGAUUAUGGUGAAUCUGCGACUUCUGCUGU, which self-cleavage is on record?
A: The self-cleavage was 0.476.

Q: With GGGGGCCACAGCAGAAGCGUUCACGUCGCGGCCCCUGUCAGAUGCUGGUGAAUCAGCGAAUUCUGCUGU as the variant, how does the self-cleavage read?
A: The self-cleavage was 0.432.

Q: With GGGGGCCACAGCAGAAGCGUUCACGUCGCGGCCCCUGUCAGAUGCUGGUGAAUCGGCGAAUUCUGCUGU as the variant, how does the self-cleavage read?
A: Its self-cleavage is 0.574.

Q: Which self-cleavage does the source give for GGGGGCCACAGCAGAAGCGUUCACGUCGCGGCCCCUGUCAGAUGCUGGUGAAUCUGCGAAAUCUGCUGU here?
A: Its self-cleavage is 0.808.

Q: With GGGGGCCACAGCAGAAGCGUUCACGUCGCGGCCCCUGUCAGAUGCUGGUGAAGCUGCGAAUUCUGCUGU as the variant, how does the self-cleavage read?
A: The self-cleavage was 0.755.

Q: With GGGGGCCACAGCAGAAGCGUUCACGUCGCGGCCCCUGUCAGAUCCUGGUGAAUCUGCGAAUUCUACUGU as the variant, how does the self-cleavage read?
A: The self-cleavage was 0.519.

Q: With GGGGGCCACAGCAGAAGCGUUCACGUCGCGGCCCCUGUCAGAUCCUGGUGAAUCUGCGAAUUCUUCUGU as the variant, how does the self-cleavage read?
A: The self-cleavage was 0.488.

Q: With GGGGGCCACAGCAGAAGCGUUCACGUCGCGGCCCCUGUCAGAUGCUGGUGAAUCUGCGAAUUCUGAUGU as the variant, how does the self-cleavage read?
A: The self-cleavage was 0.733.

Q: For GGGGGCCACAGCAGAAGCGUUCACGUCGCGGCCCCUGUCAGAUCCUGGUGAAUCGGCGAAUUCUGCUGU, which self-cleavage is on record?
A: Its self-cleavage is 0.372.

Q: For GGGGGCCACAGCAGAAGCGUUCACGUCGCGGCCCCUGUCAGAUCCUGGUGAAUCUGCGAAUUCUGCUUU, which self-cleavage is on record?
A: Its self-cleavage is 0.987.
